Experiments:
[1] = system: full-thickness defect in the articular cartilage of the trochlear groove; assay type: in vivo, New Zealand White rabbits
Source text: 60 adult male, naïve, New Zealand White rabbits were used for this study. Animals were approximately 3-4 months of age. Rabbits underwent surgery for creation of the cartilage defect right knee. A 2 mm by 6 mm full-thickness defect was made in the articular cartilage of the trochlear groove. The microfracture was created using 18 gauge needles. Two 3 mm deep microfractures were made through the subchondral bone at the base of the defect, one proximally and one distally. Each microfracture hole was approximately 1.5 mm in diameter and the holes separated by 2 mm. The experiment consisted of the following six treatment groups, with 10 animals in each group for a total of 60 rabbits (Table 2). Rabbits in Groups 3, 4, 5 and 6 were treated with intra-articular rhFGF-18 in either one cycle of three weekly injections of 100 μg of rhFGF-18 (Group 3 and 5) or one cycle of three monthly injections of 100 μg of rhFGF-18 (Group 4 and 6). All animals were euthanized and necropsied 6 months after surgery. [table]

[2] = system: medial meniscal tear in the right knee joint; assay type: in vivo, Male Lewis rats
Method: After the sacrifice, the right knee was removed and decalcified in 5% formic acid for 4-6 d before cutting in half in the frontal plane and embedding in paraffin wax. Three sections were cut in 200 μm steps, stained with toluidine blue, and analyzed using ImagePro Plus™ software (Media Cybernetics). In scoring the three sections of the joint, the worst-case scenario for the two halves on each slide was determined for the cartilage lesion as the cartilage degeneration width (μm). This reflects the areas of tibial cartilage lesion in which both chondrocyte and proteoglycan loss extend 50% of the cartilage thickness. The measurement was taken over the area of greatest lesion severity in each of the three zones across the tibial surface.
A treatment group Mean±SE for each score and measurement was determined.
Data was analyzed using a one-way analysis of variance (1-way ANOVA) or Kruskal-Wallis test (non-parametric), along with an appropriate multiple comparison post-test. Right knee caliper measurements were compared to left using a Student's t-test. Unless indicated, Bolder BioPATH, Inc. performs statistical analysis on raw (untransformed) data only. […] Significance for all tests was set at p≦0.05. Comparisons were made between each group and the vehicle control group, as well as between pairs
Male Lewis rats underwent surgery (under anesthesia with Isoflurane) to induce a medial meniscal tear in the right knee joint. Animals were dosed IA with vehicle or FGF-18 on one of two different regimens (see table below), then terminated on day 105. Knees had caliper measurements taken at baseline and days 21, 42, 56, 84, and 105. Serum was evaluated for α2 macroglobulin levels at baseline and on days 21, and 105, as well as one week after the final dose (day 42 or 84). Right knees were collected for histopathology evaluation.

[3] = system: ACLT+tMx model of instability-induced OA; assay: ACLT+tMx model of instability-induced OA, cartilage matrix deposition by Safranin-O (Example 1); assay type: in vivo, male Lewis rats
Method: The anterior cruciate ligament transection with resection of the medial meniscus (ACLT+tMx) model of instability-induced OA was performed in male Lewis rats 10-15 weeks of age. Briefly, under anesthesia with Isoflurane, the joint capsule of the right knee of each rat was opened, the anterior cruciate and the meniscus fixating ligaments were sharply transected, the meniscus was removed and the capsule, muscles and skin closed by sutures. Animals were randomly allocated into 10 groups of n=10 each. The following dosages were investigated: 0, 0.3, 1, 3 and 10 μg per intra-articular injection. Groups 1-5 received one cycle of three single injections at weekly intervals, group 6-10 three single injections at monthly intervals. Intra-articular treatment was started three weeks post-surgery. At this time pathophysiological changes are already mainifest, e.g., cartilage matrix loss. Animals were euthanized 17 weeks after surgery and joints were investigated.

B1: trFGF-18: recombinant truncated form of human FGF-18 (170 amino acids, SEQ ID NO: 2), produced in E. coli (protein)
chain: MEENVDFRIHVENQTRARDDVSRKQLRLYQLYSRTSGKHIQVLGRRISARGEDGDKYAQLLVETDTFGSQVRIKGKETEFYLCMNRKGKLVGKPDGTSKECVFIEKVLENNYTALMSAKYSGWYVGFTKKGRPRKGPKTRENQQDVHFMKRYPKGQPELQKPFKYTTVTK
modifications: Recombinant truncated FGF-18(trFGF-18)
animals with intercondylar groove filled with cartilage ([1]; Group 4: no microfracture, monthly x3, nearly normal to slightly roughened or granular cartilage): 6/9 | animals with intercondylar groove filled ([1]; Group 6: microfracture, monthly x3, finely granular to granular cartilage): 3/10 | animals with groove 50% filled to nearly completely filled ([1]; Group 6: microfracture, monthly x3, granular to coarsely granular cartilage): 7/10 | increase in defect fill percentages ([1]; no microfracture, monthly for three months, significant): 48% | necropsy findings ([1]; rabbit, in vivo): stimulation of osteophytes on the medial and lateral trochlear ridges | extent of injury over the tibial surface (collagen damage), histopathology ([2]; 10 μg IA, day 105): generally increased | severity of tibial injury, histopathology ([2]; 10 μg IA, day 105): reducing its severity | structural benefit (total joint score, substantial tibial cartilage degeneration width) ([2]; monthly injection scheme versus other regimens, 10 μg IA): highest | overall morphology ([2]; three injections once monthly (Group 5; days 21, 49, 77)): best overall morphology | dose at which neo-formation of cartilaginous tissue became significant ([3]; lateral tibia, independently of the injection regime (three i.a. injections weekly or monthly), 17 weeks after surgery): 1 μg/joint | dose at which neo-formation of cartilaginous tissue became significant ([3]; medial tibia, one-monthly regimen, three i.a. injections): 0.3 μg/joint | dose at which neo-formation of cartilaginous tissue became significant ([3]; medial tibia, one-weekly regimen, three i.a. injections): 1 μg/joint
